We go through 1 molecule from publication PMC10515946 (bioRxiv, 2023).

The test has as its target soluble monomeric 1059 gp120 (HIV-1 clone 1059_09.A4.1460 (clade B …, strain)). As to the kind of experiment: ELISA. Background: ELISA stands for enzyme-linked immunosorbent assay.

B1: N6 (CD4-binding site broadly neutralizing antibody) (antibody, V domains shown)
VH: RAHLVQSGTAMKKPGASVRVSCQTSGYTFTAHILFWFRQAPGRGLEWVGWIKPQYGAVNFGGGFRDRVTLTRDVYREIAYMDIRGLKPDDTAVYYCARDRSYGDSSWALDAWGQGTTVVVSA
VL: YIHVTQSPSSLSVSIGDRVTINCQTSQGVGSDLHWYQHKPGRAPKLLIHHTSSVEDGVPSRFSGSGFHTSFNLTISDLQADDIATYYCQVLQFFGRGSRLHIK
Consider B1, for which the binding result was “binds”.
